From US20180291096A1 (Janssen / Centocor, published 2018) come the findings set out here.

Where a chain is given by its changes, count along the chain named.

What is called IC50 is the concentration that gives 50% inhibition. What is called Kd is the constant that tells how readily two partners part at equilibrium.

To fix the notation:
T1: recombinant human IL-23 (hrIL-23), produced at Centocor (human, UniProt P29460 23-328)
T1 sequence 1: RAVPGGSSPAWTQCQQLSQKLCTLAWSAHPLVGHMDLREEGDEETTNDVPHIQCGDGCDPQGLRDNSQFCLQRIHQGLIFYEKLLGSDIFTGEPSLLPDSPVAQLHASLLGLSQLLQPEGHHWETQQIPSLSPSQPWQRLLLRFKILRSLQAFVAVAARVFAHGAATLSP
T1 sequence 2: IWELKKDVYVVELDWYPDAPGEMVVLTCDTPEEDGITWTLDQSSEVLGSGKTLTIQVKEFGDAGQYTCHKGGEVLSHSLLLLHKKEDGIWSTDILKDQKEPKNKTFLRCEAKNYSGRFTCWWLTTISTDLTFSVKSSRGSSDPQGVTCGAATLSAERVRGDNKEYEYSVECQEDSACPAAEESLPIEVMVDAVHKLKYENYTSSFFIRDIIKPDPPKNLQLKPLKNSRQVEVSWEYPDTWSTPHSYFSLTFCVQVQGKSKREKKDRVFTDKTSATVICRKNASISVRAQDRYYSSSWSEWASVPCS

B1: MOR05039 mAb (antibody, human IgG1, V domains shown)
VH: QVELVESGGGLVQPGGSLRLSCAASGFTFSSFGMSWVRQAPGKGLEWVSNIEHKYLNYATYYAASVKGRFTISRDNSKNTLYLQMNSLRAEDTAVYYCARYWGTPYLMQFDNWGQGTLVTVSS
VL: DIALTQPASVSGSPGQSITISCTGTSSDVGGYNSVSWYQQHPGKAPKLMIYSVSSRPSGVSNRFSGSKSGNTASLTISGLQAEDEADYYCSSYDTNKPLVVFGGGTKLTVL
B2: MOR05055 mAb (antibody, human IgG1, V domains shown)
VH: B1 VH with N57G, Y61V
VL: B1 VL
B3: MOR05061 mAb (antibody, human IgG1, V domains shown)
VH: QVELVESGGGLVQPGGSLRLSCAASGFTFSSFGMSWVRQAPGKGLEWVSNISSSGSSTYYADSVKGRFTISRDNSKNTLYLQMNSLRAEDTAVYYCARYWGTPYLMQFDNWGQGTLVTVSS
VL: B1 VL with D94Y, T95F, N96Y, K97L, P98Q, L99R, V100I
B4: MOR05056 mAb (antibody, human IgG1, V domains shown)
VH: B1 VH with N50S, N57S, S65G
VL: B1 VL
B5: MOR05062 mAb (antibody, human IgG1, V domains shown)
VH: B3 VH
VL: B1 VL with S91Q, S92T, D94Y, T95F, N96S, K97Y, P98S, L99G, V100P
B6: MOR05063 mAb (antibody, human IgG1, V domains shown)
VH: B3 VH
VL: B1 VL with S91G, Y93W, T95P, N96I, K97F, P98S, L99Y, V100E
B7: MOR04658 mAb (antibody, human IgG1, V domains shown)
VH: B3 VH
VL: B1 VL
B8: MOR05028 mAb (antibody, human IgG1, V domains shown)
VH: QVELVQSGAEVKKPGSSVKVSCKASGGTFSNYAISWVRQAPGQGLEWMGGIIPVFGFTHYAQKFQGRVTITADESTSTAYMELSSLRSEDTAVYYCARDIYAGMDVWGQGTLVTVSS
VL: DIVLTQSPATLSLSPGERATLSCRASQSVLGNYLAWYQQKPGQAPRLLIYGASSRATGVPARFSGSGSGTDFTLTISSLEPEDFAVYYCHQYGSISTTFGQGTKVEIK
B9: MOR05032 mAb (antibody, human IgG1, V domains shown)
VH: QVELVQSGAEVKKPGSSVKVSCKASGGTFSSNYISWVRQAPGQGLEWMGGIIPIFGHANYAQKFQGRVTITADESTSTAYMELSSLRSEDTAVYYCARSKKGMYGGWTYPLMMFDLWGQGTLVTVSS
VL: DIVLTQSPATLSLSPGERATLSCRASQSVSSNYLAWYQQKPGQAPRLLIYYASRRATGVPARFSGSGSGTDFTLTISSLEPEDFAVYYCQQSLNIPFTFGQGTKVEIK
B10: MOR05031 mAb (antibody, human IgG1, V domains shown)
VH: B9 VH
VL: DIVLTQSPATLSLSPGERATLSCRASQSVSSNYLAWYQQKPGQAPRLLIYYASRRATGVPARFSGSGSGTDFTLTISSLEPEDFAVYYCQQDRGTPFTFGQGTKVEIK
B11: MOR05036 mAb (antibody, human IgG1, V domains shown)
VH: B9 VH with G50L, I52D, I54V, H57G, N59Y
VL: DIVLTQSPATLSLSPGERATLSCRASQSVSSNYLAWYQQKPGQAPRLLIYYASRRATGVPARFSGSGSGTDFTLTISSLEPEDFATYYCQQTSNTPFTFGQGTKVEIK
B12: MOR05033 mAb (antibody, human IgG1, V domains shown)
VH: B9 VH with G50I, I54P, F55I, H57N, N59W
VL: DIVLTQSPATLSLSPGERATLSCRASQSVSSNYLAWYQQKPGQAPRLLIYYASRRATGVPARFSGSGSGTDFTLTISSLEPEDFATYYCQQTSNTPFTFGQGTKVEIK
B13: MOR05037 mAb (antibody, human IgG1, V domains shown)
VH: B9 VH with G50L, I52D, I54M, H57G, N59Y
VL: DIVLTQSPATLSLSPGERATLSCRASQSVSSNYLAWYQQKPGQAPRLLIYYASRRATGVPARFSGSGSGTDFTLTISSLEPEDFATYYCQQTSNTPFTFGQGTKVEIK
B14: MOR05034 mAb (antibody, human IgG1, V domains shown)
VH: B9 VH with G50L, I52D, I54N, H57G, N59Y
VL: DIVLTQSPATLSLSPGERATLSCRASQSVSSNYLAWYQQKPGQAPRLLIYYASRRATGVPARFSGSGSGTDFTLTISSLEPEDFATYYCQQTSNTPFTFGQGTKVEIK
B15: MOR05053 Fab (Fab, V domains shown)
VH: B1 VH with E3Q, L56T, N57S, A59T
VL: B1 VL
notes: Fab
B16: MOR05039 Fab (Fab, V domains shown)
VH: B1 VH with E3Q
VL: B1 VL
notes: Fab
B17: MOR05041 Fab (Fab, V domains shown)
VH: QVQLVQSGAEVKKPGESLKISCKGSGYSFSNYWIGWVRQMPGKGLEWMGIISPTGSVTWYSPSFQGQVTISADKSISTAYLQWSSLKASDTAMYYCARWYYKPFDVWGQGTLVTVSS
VL: DIVLTQPPSVSGAPGQRVTISCTGSSSNIGSGYDVHWYQQLPGTAPKLLIYGNSKRPSGVPDRFSGSKSGTSASLAITGLQSEDEADYYCSSWTPSSVVFGGGTKLTVL
notes: Fab
B18: MOR05059 Fab (Fab, V domains shown)
VH: B17 VH with S52D, T54S, G55N, V57Y, W59N
VL: DIVLTQPPSVSGAPGQRVTISCTGSSSNIGSGYDVHWYQQLPGTAPKLLIYGNSKRPSGVPDRFSGSKSGTSASLAITGLQSEDEADYYCASWTDGLSLVVFGGGTKLTVL
notes: Fab
B19: MOR05043 Fab (Fab, V domains shown)
VH: B17 VH with I50F, T54D, V57H
VL: B17 VL
notes: Fab
B20: MOR05044 Fab (Fab, V domains shown)
VH: B17 VH with T54S, V57T
VL: B17 VL
notes: Fab
B21: MOR05058 Fab (Fab, V domains shown)
VH: B17 VH with S52D, T54S, G55N, V57Y, W59N
VL: B18 VL with A91S, G96T, L97P, S98N, L99M, V100I
notes: Fab
B22: MOR05046 Fab (Fab, V domains shown)
VH: B17 VH with S52D, T54V, G55S, V57W, W59K
VL: B17 VL
notes: Fab
B23: MOR05267 Fab (Fab, V domains shown)
VH: B8 VH with E3Q, V54M, F57Y, T58A, H59N
VL: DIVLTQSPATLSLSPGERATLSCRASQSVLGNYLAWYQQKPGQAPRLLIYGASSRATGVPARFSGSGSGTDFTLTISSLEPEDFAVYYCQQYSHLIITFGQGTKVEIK
notes: Fab
B24: MOR05269 Fab (Fab, V domains shown)
VH: B8 VH with E3Q, V54M, F57Y, T58A, H59N
VL: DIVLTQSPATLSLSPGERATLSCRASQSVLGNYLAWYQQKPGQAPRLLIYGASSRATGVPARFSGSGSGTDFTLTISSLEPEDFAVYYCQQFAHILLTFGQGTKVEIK
notes: Fab
B25: MOR05268 Fab (Fab, V domains shown)
VH: B8 VH with E3Q, V54M, F57Y, T58A, H59N
VL: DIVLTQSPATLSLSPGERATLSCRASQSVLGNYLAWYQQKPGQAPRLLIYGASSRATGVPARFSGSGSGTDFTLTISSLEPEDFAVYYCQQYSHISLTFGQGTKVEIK
notes: Fab
B26: MOR05034 Fab (Fab, V domains shown)
VH: B9 VH with E3Q, G50L, I52D, I54N, H57G, N59Y
VL: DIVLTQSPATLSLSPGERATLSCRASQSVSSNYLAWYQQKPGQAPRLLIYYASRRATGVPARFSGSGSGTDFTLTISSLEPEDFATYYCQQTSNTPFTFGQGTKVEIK
notes: Fab
B27: MOR05036 Fab (Fab, V domains shown)
VH: B9 VH with E3Q, G50L, I52D, I54V, H57G, N59Y
VL: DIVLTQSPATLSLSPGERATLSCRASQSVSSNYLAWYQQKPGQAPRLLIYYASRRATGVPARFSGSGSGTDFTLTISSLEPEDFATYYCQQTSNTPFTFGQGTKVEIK
notes: Fab

The first assay concerns the target T1, recombinant human IL-23 (hrIL-23), …. As to the kind of experiment: cell-based or functional assay.
B1: the “IC50, inhibition of IL-17 production” value came to 0.161 µg/mL.

Consider B2, for which the “IC50, inhibition of IL-17 production” value was 0.0916 µg/mL.

B3: the “IC50, inhibition of IL-17 production” value is 0.309 µg/mL.

In the case of B4, the “IC50, inhibition of IL-17 production” value worked out at 0.092 µg/mL.

As to B5, the “IC50, inhibition of IL-17 production” value amounted to 0.199 µg/mL.

As to B6, the “IC50, inhibition of IL-17 production” value turned out to be 0.198 µg/mL.

B7: the “IC50, inhibition of IL-17 production” value stood at 1.96 µg/mL.

On to B8, for which the “IC50, inhibition of IL-17 production” value stood at 0.104 µg/mL.

As to B9, the “IC50, inhibition of IL-17 production” value is 0.172 µg/mL.

In the case of B10, the “IC50, inhibition of IL-17 production” value amounted to 0.215 µg/mL.

Take B11: the “IC50, inhibition of IL-17 production” value was found to be 0.17 µg/mL.

Regarding B12, the “IC50, inhibition of IL-17 production” value was found to be 0.283 µg/mL.

On to B13, for which the “IC50, inhibition of IL-17 production” value came to 0.336 µg/mL.

Regarding B14, the “IC50, inhibition of IL-17 production” value came to 0.185 µg/mL.

The target is the same in another assay. As to the kind of experiment: IL-23/IL-23R competition assay.
As for B15, the IC50 turned out to be 980 pM.

Take B16: the IC50 worked out at 100 pM.

A further assay shares this target. As to the kind of experiment: IL-23/IL-23R competition assay. This is another data set of the same source.
As to B17, the IC50 worked out at 70 pM.

For B18, the IC50 was 690 pM.

On to B19, for which the IC50 was 50 pM.

Regarding B20, the 50% inhibitory concentration (IC50) was 50 pM.

Consider B21, for which the IC50 turned out to be 110 pM.

As for B22, the IC50 was 80 pM.

In the case of B23, the 50% inhibitory concentration (IC50) was determined as 140 pM.

For B24, the IC50 was determined as 200 pM.

In the case of B25, the IC50 is 150 pM.

Turning to B26, the IC50 stood at 400 pM.

As for B27, the IC50 was 320 pM.

The target is the same in the next assay. As to the kind of experiment: SET.
Regarding B17, the Kd came to 41 pM.

In the case of B18, the Kd turned out to be 93 pM.

Regarding B19, the Kd stood at 18 pM.

Regarding B20, the Kd was found to be 43 pM.

For B21, the Kd was 33 pM.

Take B22: the Kd was 23 pM.

For the molecule B23, the Kd is 2000 pM.

As for B24, the dissociation constant (Kd) turned out to be 960 pM.

With B25, the Kd was 660 pM.

As to B26, the Kd was 126 pM.

As for B27, the Kd is 32 pM.

For another assay the target is unchanged. As to the kind of experiment: SET. The source holds these as a separate data set.
In the case of B15, the Kd was determined as 27 pM.

As for B16, the Kd was determined as 27 pM.
